One molecule from patent publication US20230279104A1 (KOREA RESEARCH INSTITUTE OF BIOSCIENCE AND BIOTECHNOLOGY, published 2023) can be followed below.

The target in the experiment is T1, human transmembrane 4 L6 family member 5 (TM4SF5) on cells (human, UniProt O14894 1-197).
T1 construct: whole, on cells; also called endogenous TM4SF5; TM4SF5 protein
T1 sequence (looked up): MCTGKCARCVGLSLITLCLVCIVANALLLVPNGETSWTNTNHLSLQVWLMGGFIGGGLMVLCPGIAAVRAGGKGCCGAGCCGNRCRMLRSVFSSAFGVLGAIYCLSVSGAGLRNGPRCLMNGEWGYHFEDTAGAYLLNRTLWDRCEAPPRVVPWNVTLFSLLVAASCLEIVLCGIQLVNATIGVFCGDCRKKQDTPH
Briefly: flow cytometry, internalization analysis on SNU449Tp cells. Here is the method:
Cells were transferred to ice-cold buffer to stop the occurrence of internalization and stained with FITC-conjugated anti-human IgG. PI⁻ cells were analyzed by flow cytometry.
Background: In flow cytometry, cells or beads pass a laser one at a time.

B1: humanized monoclonal antibody Ab27-hz9 (scFv-hFc form) (antibody, V domains shown)
VH: QVQLVQSGAEVKKPGASVKVSCKASGYTFTDYEMHWVRQAPGQGLEWMGAIDPETGGTAYNQKFKGRVTMTADKSISTAYMELSRLRSDDTAVYYCARPYLGYWGQGTLVTVSS
VL: EIVLTQSPGTLSLSPGERATLSCRSSQSLVHSNGNTYLHWYQQKPGQAPRLLIYKVSNRFSGIPDRFSGSGSGTDFTLTISRLEPEDFAVYYCFQGSHIPLTFGQGTKVEIK
notes: VH and VK genes were synthesized in scFv format and inserted into the pDR-OriP-Fc1 vector, so the molecule tested is an scFv-human Fc fusion; Frameworks are IGHV1-2 and IGKV3-20 with murine residues kept at H71 and H73; also called humanized Ab27
On to B1, for which the binding result is “binds”.
